Measurements taken from US20250134988A1.

Biological target: CoV2_5P_FPKO1 (SARS-CoV-2) (UniProt P0DTC2)
Assay: ELISA

**Q.** With CR3022 (antibody) as the substance, how does the EC50 (read off the curve) read?
**A.** 0.01 µg/mL
